Residue numbers refer to the chain shown, from its start. Numbers in names are those of the source. Where two headings read alike, the source gives them in different places. Blank lines part the entries; values can stand above or below the binder they belong to.
Columns and labels:
monomeric human CTLA-4 [1] = molecular target: T1, monomeric human CTLA-4 (human, UniProt P16410 36-161, limits assumed); assay: SPR, captured Fab, pH 7.4
T1 construct: Soluble monomeric analyte in SPR; also called huCTLA-4
T1 sequence: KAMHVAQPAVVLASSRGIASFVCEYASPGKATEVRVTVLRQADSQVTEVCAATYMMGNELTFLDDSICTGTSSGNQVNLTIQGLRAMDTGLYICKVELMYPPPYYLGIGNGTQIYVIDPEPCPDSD
Experimental: (§1) Binding of selected variants to human CTLA-4 was determined essentially as described in Example 3. […] Nomenclature and sequences for these antibodies is provided at Tables 6 and 7, and in the sequence listing as summarized at Table 8.
(§2) Monomeric human CTLA-4 was flowed as analyte with up to 2 μM top concentration. Between cycles, the capture surface was regenerated with 75 mM phosphoric acid. Experiments were run on a BIACORE® T200 instrument at 37° C. Running buffers were HEPES buffered saline for pH 7.4 experiments and Bis-Tris buffered saline for lower pH experiments. […] Double referenced sensorgrams were fitted to a 1:1 Langmuir binding model with mass transport to determine equilibrium dissociation constants (KD), as well as association (kₐ) and dissociation (kd) rate constants where appropriate.

monomeric human CTLA-4 [2] = molecular target: T1, monomeric human CTLA-4; assay: SPR, captured Fab, pH 6.0 vs 7.4
Experimental: as §1, §2

monomeric human CTLA-4 [3] = molecular target: T1, monomeric human CTLA-4; assay: SPR, captured Fab, pH 6.0 vs 7.4; remark: listed apart in the source
Experimental: (§3) See Example 3. Antibodies were tested as monovalent Fab fragments to simplify analysis.
as §2

monomeric human CTLA-4 [4] = molecular target: T1, monomeric human CTLA-4; assay: SPR, captured Fab, first experiment of Table 3
Experimental: as §3, §2

monomeric human CTLA-4 [5] = molecular target: T1, monomeric human CTLA-4; assay: SPR, captured Fab, pH 6.0
Experimental: as §3, §2

monomeric human CTLA-4 [6] = molecular target: T1, monomeric human CTLA-4; assay: SPR, captured Fab, pH 6.0; remark: listed apart in the source
Experimental: as §1, §2

monomeric human CTLA-4 [7] = molecular target: T1, monomeric human CTLA-4; assay: SPR, captured Fab, pH 7.4; remark: listed apart in the source
Experimental: as §3, §2

monomeric human CTLA-4 [8] = molecular target: T1, monomeric human CTLA-4; assay: SPR, pH 6.0 and pH 7.5 (FIG. 6)
Experimental: Unless otherwise indicated, experiments were performed with a BIACORE® SPR surface plasmon resonance spectrometer (Biacore AB, Uppsala, Sweden). Antibodies were tested as monovalent Fab fragments to simplify analysis.
as §2

monomeric cyno CTLA-4 = molecular target: T2, monomeric cyno CTLA-4 (cynomolgus macaque (Macaca fascicularis), UniProt G7PL88 36-161); assay: SPR, Fab, monomeric cyno CTLA-4 as analyte; koff (s^-1, linear axis 0 to 0.3) plotted against pH
T2 construct: also called CTLA-4 from the cynomolgus macaque Macaca fascicularis
T2 sequence: T1 sequence with S14N, I18T, L106M
Experimental: The pH dependence of binding of selected antibodies of the present invention to human CTLA-4 and cyno CTLA-4 was measured by surface plasmon resonance (SPR) spectroscopy, essentially as described in Example 3. Briefly, antibodies were studied as monovalent Fab fragments. Anti-human kappa polyclonal capture antibody (Southern Biotech, Ala. USA) was immobilized on a ethylenediamine-blocked CM4 sensor chip in a Biacore T200 surface plasmon resonance system. Fab fragments of selected antibodies of the present invention were then captured on one flow cell each. […] Running buffer was 20 mM BisTris, 150 mM NaCl, 0.05% Tween-20, 1 g/L BSA, at a pH ranging from 5.5 to 7.4 in 0.1-0.2 pH unit intervals (12 total). The surface was regenerated with 1/200 H₃PO₄ between cycles. […] Where required, the Rₘₐₓ was fixed by calculating expected binding based on capture level and apparent activity from other fits for the same Fab.

[9] = molecular target: T3, human CTLA-4 on 58 α-β-CTLA-4/CD3 ζ cells (human; mouse (mCD3ζ)); assay: flow cytometry (APC mean FI), Fab on 58αβ-CTLA4/mCD3ζ cells, pH 6.2
T3 construct: also called 58αβ-hCTLA4/mCD3ζ cells; 58αβ-CTLA4/mCD3ζ cells
Experimental: Antibodies were titrated from 100 μg/mL at a 1:4 dilution across 12 points in pH-specific buffers and incubated for 30-60 minutes. Buffers contained HBSS, 2% FBS^HI, 0.02% sodium azide, 2 mM EDTA, and sodium phosphate buffer (pH 5.4). Sodium phosphate buffer was added until desired pH was reached (7.2, 6.7, 6.2). Approximately 3e5 cells/well were tested for each cell line. […] Detection was done with a monovalent anti-hKappa secondary nanobody conjugated to Alexa647 and used at a dilution of 1:2000. Cells were fixed with BD Fix Solution I for 30 minutes prior to resuspension in pH-specific buffers and reading on the cytometer (BD Fortessa).
The experimental protocol was the same as used to obtain the data of FIGS. 16A-C.

Kd (monomeric human CTLA-4 [1]): 28 nM
kon (monomeric human CTLA-4 [1]): 640000 M⁻¹ s⁻¹
t1/2 (monomeric human CTLA-4 [1]): 39 s
KD 7.4/6 (APBP) (monomeric human CTLA-4 [2]): 3.1
ka 6/7.4 (monomeric human CTLA-4 [2]): 1.7
t1/2 6/7.4 (monomeric human CTLA-4 [2]): 1.9
KD 7.4/6 (APBP) (monomeric human CTLA-4 [3]): 3.2
ka 6/7.4 (monomeric human CTLA-4 [3]): 1.7
kd 7.4/6 (monomeric human CTLA-4 [3]): 1.9
ratio of KD (7.4/6.0) normalized to the ratio of ipilimumab (monomeric human CTLA-4 [4]): 3.2
Kd (monomeric human CTLA-4 [5]): 8.8 nM
koff (monomeric human CTLA-4 [5]): 0.0093 s⁻¹
kon (monomeric human CTLA-4 [5]): 1.1e+06 M⁻¹ s⁻¹
Kd (monomeric human CTLA-4 [6]): 8.8 nM
kon (monomeric human CTLA-4 [6]): 1.1e+06 M⁻¹ s⁻¹
t1/2 (monomeric human CTLA-4 [6]): 75 s
Kd (monomeric human CTLA-4 [7]): 28 nM
koff (monomeric human CTLA-4 [7]): 0.018 s⁻¹
kon (monomeric human CTLA-4 [7]): 640000 M⁻¹ s⁻¹
B1: ipi.18 Fab (Fab, V domains shown)
VH: QVQLVESGGGVVQPGRSLRLSCAASGFTFSSYTMHWVRQAPGKGLEWVTFISYDGNNKYYADSVKGRFTISRDNSKNTLYLQMNSLRAEDTAIYYCARTGWLGPFDYWGQGTLVTVSS
VL: not shown
notes: Tested as monovalent Fab; also called S31D

Kd (monomeric human CTLA-4 [1]): 19 nM
kon (monomeric human CTLA-4 [1]): 850000 M⁻¹ s⁻¹
t1/2 (monomeric human CTLA-4 [1]): 43 s
KD 7.4/6 (APBP) (monomeric human CTLA-4 [2]): 1.3
ka 6/7.4 (monomeric human CTLA-4 [2]): 1.2
t1/2 6/7.4 (monomeric human CTLA-4 [2]): 1.1
KD 7.4/6 (APBP) (monomeric human CTLA-4 [3]): 1.4
ka 6/7.4 (monomeric human CTLA-4 [3]): 1.2
kd 7.4/6 (monomeric human CTLA-4 [3]): 1.1
ratio of KD (7.4/6.0) normalized to the ratio of ipilimumab (monomeric human CTLA-4 [4]): 1.4
Kd (monomeric human CTLA-4 [5]): 14 nM
koff (monomeric human CTLA-4 [5]): 0.015 s⁻¹
kon (monomeric human CTLA-4 [5]): 1e+06 M⁻¹ s⁻¹
Kd (monomeric human CTLA-4 [6]): 14 nM
kon (monomeric human CTLA-4 [6]): 1e+06 M⁻¹ s⁻¹
t1/2 (monomeric human CTLA-4 [6]): 46 s
Kd (monomeric human CTLA-4 [7]): 19 nM
koff (monomeric human CTLA-4 [7]): 0.016 s⁻¹
kon (monomeric human CTLA-4 [7]): 850000 M⁻¹ s⁻¹
B2: ipi.17 Fab (Fab, V domains shown)
VH: B1 VH
VL: not shown
notes: Tested as monovalent Fab; also called S28E

Kd (monomeric human CTLA-4 [1]): 28 nM
kon (monomeric human CTLA-4 [1]): 800000 M⁻¹ s⁻¹
t1/2 (monomeric human CTLA-4 [1]): 32 s
KD 7.4/6 (APBP) (monomeric human CTLA-4 [2]): 3.5
ka 6/7.4 (monomeric human CTLA-4 [2]): 1.3
t1/2 6/7.4 (monomeric human CTLA-4 [2]): 2.7
Kd (monomeric human CTLA-4 [6]): 7.9 nM
kon (monomeric human CTLA-4 [6]): 1.1e+06 M⁻¹ s⁻¹
t1/2 (monomeric human CTLA-4 [6]): 83 s
CAPBP (ratio of KD normalized to ipilimumab) (monomeric human CTLA-4 [8]): 5.5
B3: ipi.57 Fab (Fab, V domains shown)
VH: B1 VH with S31H
VL: not shown
notes: Tested as monovalent Fab; also called HCDR1 S31H

binding result (monomeric cyno CTLA-4): binds
EC50 (read off the curve) [9]: ~0.07 µg/mL
Kd (monomeric human CTLA-4 [1]): 45 nM
kon (monomeric human CTLA-4 [1]): 490000 M⁻¹ s⁻¹
t1/2 (monomeric human CTLA-4 [1]): 32 s
KD 7.4/6 (APBP) (monomeric human CTLA-4 [2]): 31
ka 6/7.4 (monomeric human CTLA-4 [2]): 2.5
t1/2 6/7.4 (monomeric human CTLA-4 [2]): 12
Kd (monomeric human CTLA-4 [6]): 1.5 nM
kon (monomeric human CTLA-4 [6]): 1.2e+06 M⁻¹ s⁻¹
t1/2 (monomeric human CTLA-4 [6]): 385 s
B4: ipi.101 Fab (Fab, V domains shown)
VH: B1 VH with S31H, N56H
VL: not shown
notes: Tested as monovalent Fab
